From patent US20230192896A1 (published 2023)

These binders were tested against free FIXa (activated Factor IX) (UniProt P00740 47-191; P00740 227-461) (assay: BLI).

Row | Kd | Binder
1 | 30.8 nM | BIIB-9-886 (antibody, V domains shown) VH: QVQLVQSGAEVKKPGASVKVSCKASGYTFTSYYMHWVRQAPGQGLEWMGIINPSGGSTSYAQKFQGRVTMTRDTSTSTVYMELSSLRSEDTAVYYCARDPAHSYLDAFDIWGQGTMVTVSS VL: DIQMTQSPSSVSASVGDRVTITCRASQGISSWLAWYQQKPGKAPKLLIYAASSLQSGVPSRFSGSGSGTDFTLTISSLQPEDFATYYCQQASSFPFTFGGGTKVEIK
2 | 108 nM | BIIB-9-628 (antibody, V domains shown) VH: QVQLVQSGAEVKKPGASVKVSCKASGYTFTSYYMHWVRQAPGQGLEWMGIINPSGGSTSYAQKFQGRVTMTRDTSTSTVYMELSSLRSEDTAVYYCAREPIAYGATLDLWGRGTLVTVSS VL: EIVLTQSPGTLSLSPGERATLSCRASQSVSSDYLAWYQQKPGQAPRLLIYGASSRATGIPDRFSGSGSGTDFTLTISRLEPEDFAVYYCQQYVVFPFTFGGGTKVEIK
3 | 32.4 nM | BIIB-9-1276 (antibody, V domains shown) VH: QLQLQESGPGLVKPSETLSLTCTVSGGSISSSSYYWGWIRQPPGKGLEWIGSIYYSGSTYYNPSLKSRVTISVDTSKNQFSLKLSSVTAADTAVYYCARDVGRTYELFDIWGQGTMVTVSS VL: DIQMTQSPSSVSASVGDRVTITCRASQGISSWLAWYQQKPGKAPKLLIYAASSLQSGVPSRFSGSGSGTDFTLTISSLQPEDFATYYCQQGNSFPITFGGGTKVEIK
4 | 11.9 nM | BIIB-9-619 (antibody, V domains shown) VH: QVQLVQSGAEVKKPGASVKVSCKASGYTFTSYYMHWVRQAPGQGLEWMGIINPSGGSTSYAQKFQGRVTMTRDTSTSTVYMELSSLRSEDTAVYYCARDGPRVSDYYMDVWGKGTTVTVSS VL: EIVLTQSPATLSLSPGERATLSCRASQSVSSYLAWYQQKPGQAPRLLIYDASNRATGIPARFSGSGSGTDFTLTISSLEPEDFAVYYCQQRDNWPFTFGGGTKVEIK
5 | 44.5 nM | BIIB-9-1271 (antibody, V domains shown) VH: QVQLVQSGAEVKKPGASVKVSCKASGYTFTSYYMHWVRQAPGQGLEWMGIINPSGGSTSYAQKFQGRVTMTRDTSTSTVYMELSSLRSEDTAVYYCARDTGGYAFDIWGQGTLVTVSS VL: EIVMTQSPATLSVSPGERATLSCRASQSVSSNLAWYQQKPGQAPRLLIYGASTRATGIPARFSGSGSGTDFTLTISSLQPEDFATYYCQQGFSFPFTFGGGTKVEIK
6 | 51.5 nM | BIIB-9-1268 (antibody, V domains shown) VH: QVQLVQSGAEVKKPGASVKVSCKASGYTFTSYYMHWVRQAPGQGLEWMGIINPSGGSTSYAQKFQGRVTMTRDTSTSTVYMELSSLRSEDTAVYYCARDPPSWYVFDIWGQGTMVTVSS VL: EIVMTQSPATLSLSPGERATLSCRASQSVSSYLAWYQQKPGQAPRLLIYDASNRATGIPARFSGSGSGTDFTLTISSLEPEDFAVYYCQQATVWPFTFGGGTKVEIK
7 | 18 nM | BIIB-9-622 (antibody, V domains shown) VH: QVQLVQSGAEVKKPGASVKVSCKASGYTFTSYYMHWVRQAPGQGLEWMGIINPSGGSTSYAQKFQGRVTMTRDTSTSTVYMELSSLRSEDTAVYYCARDGATTVSYLSFDIWGQGTMVTVSS VL: EIVMTQSPATLSVSPGERATLSCRASQSVSSSLAWYQQKPGQAPRLLIYGASTRATGIPARFSGSGSGTEFTLTISSLQSEDFAVYYCQQHSTWPPTFGGGTKVEIK
8 | 60.2 nM | BIIB-9-1285 (antibody, V domains shown) VH: QVQLVQSGAEVKKPGASVKVSCKASGYTFTSYYMVWVRQAPGQGLEWMGIINPSGGSTSYAQKFQGRVTMTRDTSTSTVYMELSSLRSEDTAVYYCARVPTYRYSYLAFDIWGQGTMVTVSS VL: EIVMTQSPATLSVSPGERATLSCRASQSVSSNLAWYQQKPGQAPRLLIYGASTRATGIPARFSGSGSGTEFTLTISSLQSEDFAVYYCQQASNFPPTFGGGTKVEIK
9 | 61.2 nM | BIIB-9-631 (antibody, V domains shown) VH: QVQLVQSGAEVKKPGASVKVSCKASGYTFTSYYMHWVRQAPGQGLEWMGIINPSGGSTSYAQKFQGRVTMTRDTSTSTVYMELSSLRSEDTAVYYCARAENRGDYEAWGQGTLVTVSS VL: DIQMTQSPSSVSASVGDRVTITCRASQGISRWLAWYQQKPGKAPKLLIYAASSLQSGVPSRFSGSGSGTDFTLTISSLQPEDFATYYCQQRTSFPLTFGGGTKVEIK
10 | 11.4 nM | BIIB-9-608 (antibody, V domains shown) VH: QLQLQESGPGLVKPSETLSLTCTVSGGSISSSSYYWGWIRQPPGKGLEWIGSIYYSGSTYYNPSLKSRVTISVDTSKNQFSLKLSSVTAADTAVYYCARDRLETSEAGMDVWGQGTTVTVSS VL: not shown

More lines, now with the values behind:

Row | Binder | Kd
11 | BIIB-9-475 (antibody, V domains shown) VH: QVQLQESGPGLVKPSETLSLTCTVSGGSISSYYWSWIRQPPGKGLEWIGSIYYSGSTNYNPSLKSRVTISVDTSKNQFSLKLSSVTAADTAVYYCARDVGGYDYGVGAFDIWGQGTMVTVSS VL: DIQMTQSPSSLSASVGDRVTITCQASQDITNYLNWYQQKPGKAPKLLIYDASNLETGVPSRFSGSGSGTDFTFTISSLQPEDIATYYCQQSSNFPLTFGGGTKVEIK | 5.93 nM
12 | BIIB-9-397 (antibody, V domains shown) VH: QVQLQESGPGLVKPSETLSLTCAVSGYSISSGYYWAWIRQPPGKGLEWIGSIYHSGSTYYNPSLKSRVTISVDTSKNQFSLKLSSVTAADTAVYYCARDVWYVGGFDPWGQGTLVTVSS VL: DIQMTQSPSSLSASVGDRVTITCQASQDISNYLNWYQQKPGKAPKLLIYDASNLETGVPSRFSGSGSGTDFTFTISSLQPEDIATYYCQQSDDHPPTFGGGTKVEIK | 4.89 nM
13 | BIIB-9-564 (antibody, V domains shown) VH: QVQLQESGPGLVKPSETLSLTCAVSGYSISSGYYWAWIRQPPGKGLEWIGSIYHSGSTYYNPSLKSRVTISVDTSKNQFSLKLSSVTAADTAVYYCARDPGYSWEYFDYWGQGTLVTVSS VL: DIQMTQSPSSLSASVGDRVTITCRASQSISSYLNWYQQKPGKAPKLLIYAASSLQSGVPSRFSGSGSGTDFTLTISSLQPEDFATYYCQQSVAVPPTFGGGTKVEIK | 17.4 nM
14 | BIIB-9-578 (antibody, V domains shown) VH: QLQLQESGPGLVKPSETLSLTCTVSGGSISSSSYYWGWIRQPPGKGLEWIGSISYSGSTYYNPSLKSRVTISVDTSKNQFSLKLSSVTAADTAVYYCARDKYQDYSFDIWGQGTMVTVSS VL: DIQMTQSPSSVSASVGDRVTITCRASQGIDSWLAWYQQKPGKAPKLLIYAASSLQSGVPSRFSGSGSGTDFTLTISSLQPEDFATYYCQQANFLPFTFGGGTKVEIK | 4.91 nM
15 | BIIB-9-568 (antibody, V domains shown) VH: QLQLQESGPGLVKPSETLSLTCTVSGGSISSSSYYWGWIRQPPGKGLEWIGSIYYSGSTYYNPSLKSRVTISVDTSKNQFSLKLSSVTAADTAVYYCARDLGYAATYFDLWGRGTLVTVSS VL: DIQMTQSPSSLSASVGDRVTITCQASQDISNYLNWYQQKPGKAPKLLIYDASNLETGVPSRFSGSGSGTDFTFTISSLQPEDIATYYCQQYDDYLTFGGGTKVEIK | 5.5 nM
16 | BIIB-9-558 (antibody, V domains shown) VH: EVQLVESGGGLVKPGGSLRLSCAASGFTFSSYSMNWVRQAPGKGLEWVSSISSSSSYIYYADSVKGRFTISRDNAKNSLYLQMNSLRAEDTAVYYCARSYGYGYHDFDLWGRGTLVTVSS VL: DIQMTQSPSTLSASVGDRVTITCRASQSIGSWLAWYQQKPGKAPKLLIYKASSLESGVPSRFSGSGSGTEFTLTISSLQPDDFATYYCQQAGSYSFTFGGGTKVEIK | 1.1 nM
17 | BIIB-9-484 (antibody, V domains shown) VH: EVQLVESGGGLVKPGGSLRLSCAASGFTFSSYSMNWVRQAPGKGLEWVSSISSSSSYIYYADSVKGRFTISRDNAKNSLYLQMNSLRAEDTAVYYCARDVGGYAGYYGMDVWGQGTTVTVSS VL: not shown | 37.7 nM
18 | BIIB-9-472 (antibody, V domains shown) VH: EVQLVESGGGLVKPGGSLRLSCAASGFTFSSYSMNWVRQAPGKGLEWVSSISSSSSYIYYADSVKGRFTISRDNAKNSLYLQMNSLRAEDTAVYYCARGGRYSGSWSWNIWGQGTMVTVSS VL: not shown | 8.99 nM
19 | BIIB-9-471 (antibody, V domains shown) VH: QVQLQESGPGLVKPSQTLSLTCTVSGGSISSGGYYWSWIRQHPGKGLEWIGYIYYSGSTYYNPSLKSRVTISVDTSKNQFSLKLSSVTAADTAVYYCARSGVSGSGSDNWFDPWGQGTTVTVSS VL: EIVLTQSPATLSLSPGERATLSCRASQSVSRYLAWYQQKPGQAPRLLIYDASNRATGIPARFSGSGSGTDFTLTISSLEPEDFAVYYCQQDYNYPFTFGGGTKVEIK | 9.11 nM
20 | BIIB-9-416 (antibody, V domains shown) VH: QVQLVQSGAEVKKPGASVKVSCKASGYTFTSYYMHWVRQAPGQGLEWMGIINPSGGSTSYAQKFQGRVTMTRDTSTSTVYMELSSLRSEDTAVYYCAREGPMLDYPTYSNWFDPWGQGTLVTVS VL: EIVMTQSPATLSLSPGERATLSCRASQSVSSYLAWYQQKPGQAPRLLIYDSSNRATGIPARFSGSGSGTDFTLTISSLEPEDFAVYYCQQRVVWPPTFGGGTKVEIK | 2.98 nM
21 | BIIB-9-473 (antibody, V domains shown) VH: not shown VL: EIVLTQSPATLSLSPGERATLSCRASQSVSSYLAWYQQKPGQAPRLLIYDASNRATGIPARFSGSGSGTDFTLTISSLEPEDFAVYYCQQRSFLPYTFGGGTKVEIK | 17.2 nM
22 | BIIB-9-588 (antibody, V domains shown) VH: QVQLVQSGAEVKKPGASVKVSCKASGYTFTSYYMHWVRQAPGQGLEWMGIINPSGGSTTYAQKFQGRVTMTRDTSTSTVYMELSSLRSEDTAVYYCARDGGGSYDYWSGYWYDVWGQGTTVTVSS VL: EIVMTQSPATLSVSPGERATLSCRASQSVSSNLAWYQQKPGQAPRLLIYGASTRATGIPARFSGSGSGTEFTLTISSLQSEDFAVYYCQQAYNWPFTFGGGTKVEIK | 16.5 nM
23 | BIIB-9-477 (antibody, V domains shown) VH: EVQLLESGGGLVQPGGSLRLSCAASGFTFSNYAMSWVRQAPGKGLEWVSAISGSGGSTYYADSVKGRFTISRDNSKNTLYLQMNSLRAEDTAVYYCARGGVYSSSWMRFWGQGTLVTVSS VL: EIVMTQSPATLSVSPGERATLSCRASQSVSSSLAWYQQKPGQAPRLLIFGASTRATGIPARFSGSGSGTEFTLTISSLQSEDFAVYYCQQDVNWPITFGGGTKVEIK | 8.63 nM
24 | BIIB-9-451 (antibody, V domains shown) VH: QLQLQESGPGLVKPSETLSLTCTVSGGSISSSSYYWGWIRQPPGKGLEWIGSISYSGSTYYNPSLKSRVTISVDTSKNQFSLKLSSVTAADTAVYYCARDSGGYYYQGFDYWGQGTLVTVSS VL: not shown | 8.76 nM
